This note sets out measurements from paper PMC13254101.

Experiment [1] has as its target CrAPE1_(C128S), recombinant soluble domain of Chlamydomonas APE1 with C128S (Chlamydomonas reinhardtii). In words: SEC-MALS. In general terms: SEC sorts molecules by how far they enter the pores of the column.
The target in experiment [2] is CrAPE1_(C247S), recombinant soluble domain of Chlamydomonas APE1 with C247S (Chlamydomonas reinhardtii). In words: SEC-MALS.

As a reminder, the stoichiometry N is the number of molecules, sites or subunits per partner or assembly. On to “CrAPE1_(C128S), recombinant soluble domain of Chlamydomonas APE1 with C128S (domain or fragment)”, for which the stoichiometry N in experiment [1] is 2. As for “CrAPE1_(C247S), recombinant soluble domain of Chlamydomonas APE1 with C247S (domain or fragment)”, the stoichiometry N in experiment [2] amounted to 2.
